Bridge positions count the residues as written; N and C are the ends. Square brackets hold non-standard residues; d marks the D form. $4rn6 = Alpha-Me R-azide 1,4 triazole (6 carbon), forms a triazole cross-link with a second residue in the same molecule; $4a5 = Alpha-Me alkyne 1,4 triazole (5 carbon), forms a triazole cross-link with a second residue in the same molecule; $5rn6 = Alpha-Me R-azide 1,5 triazole (6 carbon); $5a5 = Alpha-Me alkyne 1,5 triazole (5 carbon); Cba = N[C@@H](CC1CCC1)C(=O)O
T1: MDMX (In-house, 40 kD) (UniProt O15151 1-134, limits assumed)
T1 construct: Construct used in the FP assays is described only as in-house, 40 kD; also called MDM4
T1 sequence (looked up): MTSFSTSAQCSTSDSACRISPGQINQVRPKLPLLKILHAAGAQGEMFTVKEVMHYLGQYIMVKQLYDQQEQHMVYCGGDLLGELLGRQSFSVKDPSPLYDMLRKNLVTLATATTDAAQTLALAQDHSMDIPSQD


Tests used:
MDM2 (In-house, 41 kD) [1] = molecular target: T2, MDM2 (In-house, 41 kD) (UniProt Q00987 1-138, limits assumed); test: competitive fluorescence polarization, Ki (MDM2)
T2 construct: Construct used in the FP assays is described only as in-house, 41 kD; also called HDM2
T2 sequence (Q00987 1-138 limits assumed): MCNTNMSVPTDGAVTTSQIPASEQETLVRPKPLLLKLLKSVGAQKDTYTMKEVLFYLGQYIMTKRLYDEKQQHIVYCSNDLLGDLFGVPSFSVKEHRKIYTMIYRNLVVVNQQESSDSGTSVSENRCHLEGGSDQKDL

MDMX (In-house, 40 kD) [2] = molecular target: T1, MDMX (In-house, 40 kD); test: competitive fluorescence polarization, Ki (MDMX)
Procedure: (§1) The assay is performed according to the following general protocol: 1. Dilute MDMX (In-house, 40 kD) into FP buffer (High salt buffer-200 mM Nacl, 5 mM CHAPS, pH 7.5.) to make 300 nM (2×) working stock solution. 2. Add 20 µl of 300 nM (2×) of protein stock solution into each well of 96-well black HE microplate (Molecular Devices) 3. […] Then, dilute from 100 µM to 10 µM with water (dilution 1:10) and then dilute with FP buffer from 10 µM to 40 nM (dilution 1:250). This is the working solution which will be a 10 nM concentration in well (dilution 1:4). […] 4. Make unlabeled peptide dose plate with FP buffer starting with 5 µM (final) of peptide and making 5 fold serial dilutions for 6 points using following dilution scheme. 5. Dilute 10 mM (in 100% DMSO) with DMSO to 5 mM (dilution 1:2). Then, dilute from 5 mM to 500 µM with H_2O (dilution 1:10) and then dilute with FP buffer from 500 µM to 20 µM (dilution 1:25). Making 5 fold serial dilutions from 20 µM (4×) for 6 points. 6. Transfer 10 µl of serial diluted unlabeled peptides to each well which is filled with 20 µl of 300 nM of protein. 7.

MDMX (In-house, 40 kD) [3] = molecular target: T1, MDMX (In-house, 40 kD); test: competitive fluorescence polarization vs FAM-labeled linear peptide; grade of IC50 (MDMX); scale in paragraph 664: +++ = >10 and <=100 nM
Procedure: as §1

MDM2 (In-house, 41 kD) [4] = molecular target: T2, MDM2 (In-house, 41 kD); test: competitive fluorescence polarization vs FAM-labeled linear peptide; grade of IC50 (MDM2); scale in paragraph 664: +++ = >10 and <=100 nM
MDMX (In-house, 40 kD) [5] = molecular target: T1, MDMX (In-house, 40 kD); test: competitive fluorescence polarization vs FAM-labeled linear peptide; grade of Ki (MDMX); scale in paragraph 664: ++++ = <=10 nM
Procedure: as §1

MDM2 (In-house, 41 kD) [6] = molecular target: T2, MDM2 (In-house, 41 kD); test: competitive fluorescence polarization vs FAM-labeled linear peptide; grade of Ki (MDM2); scale in paragraph 664: ++++ = <=10 nM
MDMX (In-house, 40 kD) [7] = molecular target: T1, MDMX (In-house, 40 kD); test: competitive fluorescence polarization vs FAM-labeled linear peptide; grade of IC50 (MDMX); scale in paragraph 664: ++++ = <=10 nM
Procedure: as §1

MDM2 (In-house, 41 kD) [8] = molecular target: T2, MDM2 (In-house, 41 kD); test: competitive fluorescence polarization vs FAM-labeled linear peptide; grade of IC50 (MDM2); scale in paragraph 664: ++++ = <=10 nM
MDM2 (In-house, 41 kD) [9] = molecular target: T2, MDM2 (In-house, 41 kD); test: competitive fluorescence polarization vs FAM-labeled linear peptide; grade of Ki (MDM2); scale in paragraph 664: ++ = >100 and <=1000 nM
MDMX (In-house, 40 kD) [10] = molecular target: T1, MDMX (In-house, 40 kD); test: competitive fluorescence polarization vs FAM-labeled linear peptide; grade of Ki (MDMX); scale in paragraph 664: +++ = >10 and <=100 nM
Procedure: as §1

| Ki (MDM2 (In-house, 41 kD) [1]) | Ki (MDMX (In-house, 40 kD) [2]) | IC50 (MDMX (In-house, 40 kD) [3]) | IC50 (MDM2 (In-house, 41 kD) [4]) | Ki (MDMX (In-house, 40 kD) [5]) | Ki (MDM2 (In-house, 41 kD) [6]) | Binder | also measured |
| --- | --- | --- | --- | --- | --- | --- | --- |
| > 1000 nM | > 1000 nM |  |  |  |  | Ac-LTA[$5rn6]EYWAQ[Cba][$5a5]SAA-NH2 (triazole 4-11, also called Ac-LTA$5rn6EYWAQCba$5a5SAA-NH2) [SP-459] |  |
| > 1000 nM | > 1000 nM |  |  |  |  | Ac-LTA[$4rn6]EYWAQ[Cba][$4a5]SAA-NH2 (triazole 4-11, also called Ac-LTA$4rn6EYWAQCba$4a5SAA-NH2) [SP-460] |  |
|  |  | 10 to 100 nM | 10 to 100 nM | ≤ 10 nM | ≤ 10 nM | LTFCAYWAQLCAAXA (N-terminal acetyl (Ac); position 4 = %cs7 (alpha-methyl-D-cysteine) connected by an i to i+7 seven-methylene bis-thioether crosslinker to position 11 = %c7 (alpha-methyl-L-cysteine); position 14 = Nle (norleucine); C-terminal amide (NH2), Thioether-crosslinked macrocycle of Formula II; also called Ac-LTF%cs7AYWAQL%c7AANleA-NH2) [SP-916] |  |
|  |  |  |  | ≤ 10 nM | ≤ 10 nM | LTFXAYWAQLXAAXA (N-terminal acetyl (Ac); position 4 = $4rn6 (alpha-Me R-azide 1,4 triazole, 6 carbon) crosslinked to position 11 = $4a5 (alpha-Me alkyne 1,4 triazole, 5 carbon); position 14 = Nle (norleucine); C-terminal amide (NH2), Triazole-crosslinked macrocycle of Formula I; also called Ac-LTF$4rn6AYWAQL$4a5AANleA-NH2) [SP-449] | IC50 (MDMX (In-house, 40 kD) [7]): ≤ 10 nM; IC50 (MDM2 (In-house, 41 kD) [8]): ≤ 10 nM |
|  |  |  |  |  |  | Ac-LTF[$4rn6]AYWAQL[$4a5]AAAAA[dA]-NH2 (triazole 4-11, Triazole-crosslinked macrocycle of Formula I; also called Ac-LTF$4rn6AYWAQL$4a5AAAAAa-NH2) [SP-450] | Ki (MDM2 (In-house, 41 kD) [9]): 100 to 1000 nM |
|  |  | 10 to 100 nM | 10 to 100 nM |  | ≤ 10 nM | LTFCAYWAQLCAAAAAA (N-terminal acetyl (Ac); position 4 = %cs7 (alpha-methyl-D-cysteine) connected by an i to i+7 seven-methylene bis-thioether crosslinker to position 11 = %c7 (alpha-methyl-L-cysteine); position 17 = D-alanine (a); C-terminal amide (NH2), Thioether-crosslinked macrocycle of Formula II; also called Ac-LTF%cs7AYWAQL%c7AAAAAa-NH2) [SP-917] | Ki (MDMX (In-house, 40 kD) [10]): 10 to 100 nM |
